69 sequences from the domain aggregation screens of Martell et al. (2025) can be followed below.

This data set can be described thus: soluble fraction after stress (log2 fold change); higher = more stays soluble; pooled small domains, quantitative proteomics. To be noted: stress: pH 4. An outline of the steps:
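High-throughput quantitative proteomics was run on pooled custom libraries of small protein domains following pH 4 stress. Fold changes are on a log2 scale; higher values mean more of a domain remained soluble. The fold change in soluble amount is taken as a measure of aggregation propensity.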

For “HMARRTPPPTVSELNALLRVAAPHIQRVILLGIYTGARIGPSELFSLKWDDVDLTRGVIGIRL”, the “soluble fraction (log2)” value was -0.39.

As for “HMARTDVKLREVAQELLRMGLLEESLRPHLYRTALASMERLNATLEPLDLIARADEIRGLVFLAVRH”, the “soluble fraction (log2)” value was -0.548.

With “HMARVSGIDLPKNKRGYIGLTYIYGIGRSTALHILNSAGVDPEKKVHEWNDDETTAIRNIINAEIKVEGAL”, the “soluble fraction (log2)” value was -0.248.

Turning to “HMASAKTVAQSGTYKFAKTTAIKSSASDAASTVGTYYKGNTVNYNAKVTTNGQTWLRYTSYSGAQYYVKVS”, the “soluble fraction (log2)” value worked out at 0.218.

For “HMASANMPDVLGLDAETAKQVLAAKGFTKVEIYPMESSEPANRVVRQSEDRDTMVALTKEILLGVSNGS”, the “soluble fraction (log2)” value is -0.0377.

Regarding “HMASENISYSQFINQVKNSMVESVSIEADGKTISGKYKSGSSFVTYGLNDPKLVDDLLSNNVEIL”, the “soluble fraction (log2)” value was 0.0122.

Regarding “HMASGLITEEQAKSKALAHAGLSASQVNFIWVKQDWEDGRRVYEVEFYTDDYQEYDYEIDARTGEILSFDY”, the “soluble fraction (log2)” value is -1.06.

In the case of “HMASIGTATVTADNLRLRSEAGTGAETLTMAPKGAEVTVEEDAGDGWYKVTYGDTEGYMSGEWLKITLA”, the “soluble fraction (log2)” value was -0.0742.

For the sequence “HMASLIGEEKALQIALEHAGVALENVAYSQVKLENDDGRWEYDTEFYSGSKEYDYEIDASTGEILGYDHD”, the “soluble fraction (log2)” value was -0.0579.

On to “HMASLSITVNGETRRAAPGSIADLVRAIGLDPAKVAVERNGEIAPRSTLADVALADGDVLEIVHFVG”, for which the “soluble fraction (log2)” value was found to be 0.147.

“HMASMEDILAEAKTKFQEGDLFKSVNEGIQGTHKLTLPLRIKESRIVDASGAAVYREGIWATVDK”: the “soluble fraction (log2)” value is 0.185.

Regarding “HMASMNPVWLEFPNIPWGSAGWRMGWGEDYMRRWAKWYISLAEVERQSYKSDWPEPQEWEGFYAFMEHGT”, the “soluble fraction (log2)” value was -1.23.

Turning to “HMASPEIAFLNKFYQLSNTVNEISVMKIVKNYQEKYQQRISIEQMAKTLKTMGYAVRNNIISNIEEAPV”, the “soluble fraction (log2)” value was found to be 0.0906.

On to “HMASPRVWKDASSGRTLTGEFVELTKDAVKVRRANGDVVSLPLSRLTEEDITFAKGASETGGA”, for which the “soluble fraction (log2)” value came out at 0.0565.

Turning to “HMASVLTAKLSEREVDVLNLLARGFTNADIAAQLHLSEGTVRNHVSTIFAKLDVNDRTQAAVIAIRHGL”, the “soluble fraction (log2)” value was -0.176.

For the sequence “HMASVLTGMLGRVTGELAPKGIVMVGNETWTAVSEDDSVIRIGEPVEVRSVEGLILTVFRRID”, the “soluble fraction (log2)” value was -1.55.

Consider “HMATAADLLQSATGVPRSDALLLLAKLLGVAKERLIAHPETVVSEKTQATFSDWIERVRGGFPTTYLLG”, for which the “soluble fraction (log2)” value was 0.0658.

Take “HMATAEETTPLWARNRLSHAIFGPGSVTGEDERSFEVAFDNGDTLNFSKKSAHLYFTAMSSR”: the “soluble fraction (log2)” value was -0.808.

For “HMATARPPPPPESRVEVLFDGRWYAGTVVGGALDEHRATVFFDADRLSQVINFAETGIRVLGT”, the “soluble fraction (log2)” value was -0.575.

For “HMATEYIIPTVTNKKLEEAIGIAQLRGFEISVDEYKPSDIDEGTVLEQSPAAGTNAKQGDTISVTVSSG”, the “soluble fraction (log2)” value is -0.103.

For “HMATFTPYLVRITASVLNIRKGPGTTYAVTGQIKDRGVYTIVEQKGNWGRLKSGAGWISLSYTKK”, the “soluble fraction (log2)” value was 0.065.

Turning to “HMATPAFEMYKVRRGDTPAGLAKEWGFPDMASFYRINPDARSDWKRGLQLVKPMNEMAVLQATA”, the “soluble fraction (log2)” value was 0.109.

With “HMATPKYMELVRWINEQIESKNLVPGQKMYSENTLKEMFGVSRQTVRHAIGVLENEGVIRRIQGSGTYIN”, the “soluble fraction (log2)” value was found to be 0.163.

With “HMATPSTGQVSVVRLNLRVSPSISSPVVTRLTQGDTVKILAASDDGRWYKVATADGRTGWLYTIYITAE”, the “soluble fraction (log2)” value is -0.209.

On to “HMATQTGTVKWFNEGKGFGFIAPDDGSKDLFAHFSEIKTTGFKTLAEAQRVEFEVTEGRKGLQASNIK”, for which the “soluble fraction (log2)” value was -0.244.

Regarding “HMATRLPFGFAKRFGVLVEGKDDQITVYHKDGLQTAVILEIQRYLARPFRFEAVTPEEFERRLGLAYQS”, the “soluble fraction (log2)” value was -0.927.

For “HMATSNDTQITGSLALRFDGSGDTFTVNVNGDDKLEINTEGTVIYKPLTTAPTYVSGGLFFSSSGDFYVG”, the “soluble fraction (log2)” value was -0.163.

Turning to “HMATTIDFTVGDDVQVMNGPLESFTGKVTELNEASQKVKVDVVMFGRVTNVELDFVQVKKIT”, the “soluble fraction (log2)” value is -0.531.

On to “HMATTIEAPMPGKILDVKVNPGQAVSYGQVVLTMEAMKMETEIVAPADGTVASVLVKSGDMVETGAALVSL”, for which the “soluble fraction (log2)” value is -0.268.

As to “HMATTMSADWRPSEDAVGILVNAEINARFIEDAIPEFVLYWRERGAVHGAWNSKFIEHIRRQWAKFSAS”, the “soluble fraction (log2)” value is -1.31.

With “HMATTPEETILEYINKNNRISKQEIADLMGITRDGVSYHIKKLRKNGLLEWIGSPSNGHWEIIE”, the “soluble fraction (log2)” value is -0.52.

Consider “HMATVHPIRIQGGMTTQQGGKTVWLWVSDEGRLMTEDEIAGESGGTVSSRMVRGVRVLTGTGVIYG”, for which the “soluble fraction (log2)” value was -0.57.

For the sequence “HMATVIDVATTLGRPITDPDEQRQVLNWIGKTERIISARLGDLAALDRQILADVISEVVARRARN”, the “soluble fraction (log2)” value was -0.726.

Take “HMATVNIGNLTFTHKGDYASGTTYAKNDVVYYSTNGNAYIAKQATQGNAPTSTAHWDVFAAGSGG”: the “soluble fraction (log2)” value was 0.145.

With “HMAVDAASSTIGKNVEVSVANEKGDYENFNGKVKSASIKDGVVYLELELKDTGEIKEVPYSSLTKIT”, the “soluble fraction (log2)” value came out at 0.355.

In the case of “HMAVDPSVLTRRERQALAWIARGLSNKEVARGLNLAESTVKVHVQSILRKLNLTSRVQAAVYAIEHGIDK”, the “soluble fraction (log2)” value is -0.0198.

In the case of “HMAVFRVGDKVKSMEGMIGEVRGINGRLIQVATPYGLRDYYPHQITKVENPLAAAPAPLNEEA”, the “soluble fraction (log2)” value was determined as 0.0157.

“HMAVGVFQKEDGYWGYRFSIIVDGKTIARRKFTDENGSKLRTKSEAVKARAAAMVAARMERVS”: the “soluble fraction (log2)” value is 0.24.

For the sequence “HMAVIILDEPTLGLDPAVRISLWQAIQSARDSTMSAFLITTHYIKEVADYLSAVKILDHGREVASGNPSAL”, the “soluble fraction (log2)” value was -0.905.

“HMAVKLELYRVFKEVAETGNISAAAKNLYISQSAVSQSIKQLETALQARLFARSPRGVTLTGEGQMLYQYV”: the “soluble fraction (log2)” value was -0.652.

For “HMAVKNAQIDVQQFFYSKSGEVDFGRKIKAIQSHFTPERLQSFTAAVPPSQWVSQLQVMWDSL”, the “soluble fraction (log2)” value is -1.68.

“HMAVLGIQPVFHRSTGQTVYKSSVNTAKGRVYLGLFPTLTEALEIKLKYMQEHGHTKGITNLTNKLKEL”: the “soluble fraction (log2)” value worked out at 0.22.

In the case of “HMAVPFTIDVSQNGRYFIEEDNQVVEVSIGFLEDRFLRIIKSNPDIEVIIRGDAKASYESIAELLAVLQ”, the “soluble fraction (log2)” value was -0.782.

Take “HMAVQPMDQVKAWLAEDNPADIKLLVPVLQKLDLLDYEQVRGEVADRAGVRKSLLDEAVKGN”: the “soluble fraction (log2)” value is -0.119.

In the case of “HMAVRTELLALPAGWHGDASRLSTALAALQGVREAVVIASEGVAYLKVHGHDWDRDGARELLQN”, the “soluble fraction (log2)” value is -0.199.

As to “HMAVSGRGSIIGGVATVLDDFADSGKVWLEGEAWQARSSVPLKQDQEVVVRAMDGLVLVVEPVA”, the “soluble fraction (log2)” value was -0.869.

On to “HMAVSNWQKLVSSIQTQLKILALYHGPEDGIYGPNTRSAIMLYEENIGLPVTGEPSRELLAHMLDQTD”, for which the “soluble fraction (log2)” value is -0.194.

On to “HMAVTNLTAKQISDTRWRVTWDSTLASPTYYVYRDGLLMMQTRQELYEFDAARGEQVQIDVLDDMAAAPAE”, for which the “soluble fraction (log2)” value is -0.459.

“HMAWAVRAGEGVLIRAGQPGFSATTRGTALSNGAIGEGVRVRNLGSGKEIQAWVVDKGEVETR”: the “soluble fraction (log2)” value worked out at 0.136.

“HMAWIAVATKEDYSEYEWKELSPTTDWSTQTFDLGDLAGKTIYAVKMFFDHDTDVKDYKFNLGQLSITSN”: the “soluble fraction (log2)” value is -1.22.

“HMAYRLDVRNQTKGTYLVIQKKYWDKEKKQSRTKHHMSLGYVHDLQKLYSDPITHYKEVINQMNAEEKG”: the “soluble fraction (log2)” value amounted to 0.0253.

For the sequence “HMAYSEEDRRRVREELLTTALKLMSTQGIQHTTVEQVYRSVGISRSFFYAFFPTKEDLIVEAL”, the “soluble fraction (log2)” value is -0.0412.

For “HMDAAANTLRILKALSESPMSADRLAELLMEEGSGRNPRTIRRYIRALREAGFGVEHREGRYVL”, the “soluble fraction (log2)” value is -0.483.

On to “HMDAAEVEATARAMLRRSALNLLAQREQTAFELKQKLSRRFPEQAALLDEVIERLQEQGLQDDTR”, for which the “soluble fraction (log2)” value was -0.527.

Regarding “HMDAEEISILLEKAVLQLPEKQKMIFQLKYFEDLSYKDIQIITGGSIGGLKANYHHAVTKIEKLLS”, the “soluble fraction (log2)” value is -0.892.

For the sequence “HMDAEETLGARLRRLRQARGLSLAGLAQAAGLSKPSIWAWENGTTAPRRTSLLALARALDVPEQQLTGV”, the “soluble fraction (log2)” value was -0.173.

Regarding “HMDAEKHIVTPEAGLRLDRALTDALPNLSRSRVKQLINEGLVTTENKTITAPSYRVKYGDSFEISIPPPT”, the “soluble fraction (log2)” value is -0.134.

Consider “HMDAIIVPSVLKMKPFEAEEKLSALGLRMKINDTVYIDNMKPGVIVEQSPTAEEDVKTDRVIYVIVNA”, for which the “soluble fraction (log2)” value is -0.139.

“HMDAKQLQSLKNNNEQLAGFIVRLTNFYEGLSPDIDAELSKLRSHLSGKVDYTLATVSINKINQLFMLEP”: the “soluble fraction (log2)” value is -1.75.

With “HMDALIWYVSRGQQKFGPFNYFGVLKALQDKSVFEFDYVWKEGTENWVRLAEHELFSQEKVRELLA”, the “soluble fraction (log2)” value is -0.679.

As for “HMDAMLGEALRLIRVYHDLKQKQAAERLEVSTSYLSEIERGLKTPTLDIIQRYATVFDMPVSSIMFFSENL”, the “soluble fraction (log2)” value was -1.19.

For the sequence “HMDAMLSEQLREKRGELLIEVDAIAGNALRWATLSAEQQDAWAVYRQALLDVPQQAGFPNDVVWPINPN”, the “soluble fraction (log2)” value is -0.982.

On to “HMDAPKPDIGMSTDQIRSSLGQPGSQTRLETGGGRIYELWIYLYPDGKELQIYFDNAKVVKMEALS”, for which the “soluble fraction (log2)” value was -0.419.

“HMDAPLIIAETRVDVPDATVSDAVMMLDLRNTNALLFKNSGSGVLNMVYRRGDGTIGWGEPQ”: the “soluble fraction (log2)” value is -0.543.

As to “HMDASKVKIEDLGLSTRTENALVAASIRTAGGLARKSEMDLLSTDGLGEKGITEIKKALSDLGLELK”, the “soluble fraction (log2)” value was 0.246.

As to “HMDAVSTMIENLRVKTGKSLADWVGLAKGSGADKHGAMVGWLKSEHGLTHGYANLIAHETFRSAA”, the “soluble fraction (log2)” value stood at 0.0144.

Turning to “HMDAVTPVLSRIRDARFKRMVLPGDEIEISVTLIDTIGKFFNLSGQIRNKDKISLTVNFALALV”, the “soluble fraction (log2)” value was found to be 0.0905.

For the sequence “HMDDADPYEILGVERDAEDAEIKRAYHDLIRENHPDRLMAEGLPQEMIDVANEKVAFINDAYDRIEKLRGM”, the “soluble fraction (log2)” value is -0.89.

Take “HMDDENKIEVMINEEKVQLTGKDKYVFVDIFNYIDMDLTRIHGNLVLKLNGENASHNSLLKSGDKIEARWE”: the “soluble fraction (log2)” value is -1.92.
